Reference: ChEMBL document CHEMBL1143972, “Electronic effects of para-substitution on acetophenones in the reaction of rat liver 3alpha-hydroxysteroid dehydrogenase” (Bioorg Med Chem, 2008)

Assays:
[1] = target: T1, 3-alpha-hydroxysteroid dehydrogenase (Rattus norvegicus) (UniProt P23457); test: Ratio of Vmax to Km for rat liver 3-alpha-HSD for formation of corresponding (S)-alcohol products
T1 sequence (whole entry): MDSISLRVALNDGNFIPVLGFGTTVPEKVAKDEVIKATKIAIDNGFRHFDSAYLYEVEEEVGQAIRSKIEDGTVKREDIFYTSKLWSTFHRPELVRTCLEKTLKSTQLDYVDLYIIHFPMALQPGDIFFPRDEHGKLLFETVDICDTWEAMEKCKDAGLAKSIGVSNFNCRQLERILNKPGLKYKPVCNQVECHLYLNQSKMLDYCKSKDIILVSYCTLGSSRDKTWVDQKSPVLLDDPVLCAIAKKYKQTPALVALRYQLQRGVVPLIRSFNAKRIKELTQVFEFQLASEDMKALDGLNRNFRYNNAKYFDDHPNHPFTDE

[2] = target: T1, 3-alpha-hydroxysteroid dehydrogenase (Rattus norvegicus); test: Ratio of Vmax to Km for rat liver 3-alpha-HSD for formation of corresponding (R)-alcohol products
[3] = substrate: CC(=O)c1ccc(Br)cc1; test: (§1) Activity of rat liver 3-alpha-HSD assessed as formation of corresponding (S)-alcohol products
[4] = substrate: CC(=O)c1ccc(C#N)cc1; test: as §1
[5] = substrate: CC(=O)c1ccc(C)cc1; test: as §1
[6] = substrate: CC(=O)c1ccc(N(C)C)cc1; test: as §1
[7] = substrate: CC(=O)c1ccc([N+](=O)[O-])cc1; test: as §1
[8] = substrate: CC(=O)c1ccccc1; test: as §1
[9] = substrate: COc1ccc(C(C)=O)cc1; test: as §1
[10] = substrate: CC(=O)c1ccc(Br)cc1; test: (§2) Activity of rat liver 3-alpha-HSD assessed as formation of corresponding (S)-alcohol products per mg of protein
[11] = substrate: CC(=O)c1ccc(C#N)cc1; test: as §2
[12] = substrate: CC(=O)c1ccc(C)cc1; test: as §2
[13] = substrate: CC(=O)c1ccc(N(C)C)cc1; test: as §2
[14] = substrate: CC(=O)c1ccc([N+](=O)[O-])cc1; test: as §2
[15] = substrate: CC(=O)c1ccccc1; test: as §2
[16] = substrate: COc1ccc(C(C)=O)cc1; test: as §2
[17] = substrate: CC(=O)c1ccc(C)cc1; test: (§3) Activity of rat liver 3-alpha-HSD assessed as formation of corresponding (R)-alcohol products
[18] = substrate: CC(=O)c1ccc(N(C)C)cc1; test: as §3
[19] = substrate: CC(=O)c1ccc(C)cc1; test: (§4) Activity of rat liver 3-alpha-HSD assessed as formation of corresponding (R)-alcohol products per mg of protein
[20] = substrate: CC(=O)c1ccc(N(C)C)cc1; test: as §4

For CC(=O)c1ccccc1, which Ratio [1] is on record?
The Ratio was 49 µL/min.

Which Ratio [1] does the source give for CC(=O)c1ccc([N+](=O)[O-])cc1 here?
The Ratio was 61700 µL/min.

For CC(=O)c1ccc(C#N)cc1, which Ratio [1] is on record?
The Ratio was 9440 µL/min.

Which Ratio [1] does the source give for CC(=O)c1ccc(N(C)C)cc1 here?
Its Ratio is 0.41 µL/min.

What about the Ratio [2] of the same molecule?
The Ratio was 0.09 µL/min.

With CC(=O)c1ccc(Br)cc1 as the molecule, how does the Ratio [1] read?
Its Ratio is 30.6 µL/min.

For CC(=O)c1ccc(C)cc1, which Ratio [1] is on record?
The Ratio was 7.21 µL/min.

And the Ratio [2]?
Its Ratio is 1.01 µL/min.

With COc1ccc(C(C)=O)cc1 as the molecule, how does the Ratio [1] read?
The Ratio was 0.97 µL/min.

B1: 3-alpha-hydroxysteroid dehydrogenase (Rattus norvegicus), P23457 (protein)
chain: T1 sequence (whole entry)
With B1 as the molecule, how does the Km [3] read?
The Km was 10.3 mM.

And the Km [4]?
The Km was 0.11 mM.

And the Km [5]?
Its Km is 27.7 mM.

What about the Km [6] of the same molecule?
Its Km is 21.9 mM.

And the Km [7]?
The Km was 0.02 mM.

And the Km [8]?
The Km was 10.4 mM.

And the Km [9]?
Its Km is 5.59 mM.

What about the Vmax [10] of the same molecule?
Its Vmax is 0.315 µmol/min.

And the Vmax [11]?
The Vmax was 1.08 µmol/min.

And the Vmax [12]?
Its Vmax is 0.2 µmol/min.

And the Vmax [13]?
The Vmax was 0.009 µmol/min.

What about the Vmax [14] of the same molecule?
Its Vmax is 1.13 µmol/min.

What about the Vmax [15] of the same molecule?
Its Vmax is 0.51 µmol/min.

What about the Vmax [16] of the same molecule?
The Vmax was 0.005 µmol/min.

What about the Km [17] of the same molecule?
Its Km is 13.2 mM.

And the Km [18]?
The Km was 19.2 mM.

And the Vmax [19]?
Its Vmax is 0.013 µmol/min.

And the Vmax [20]?
Its Vmax is 0.002 µmol/min.
